Experimental data as given in patent US20100036095A1.

How the values were obtained:
[1] = molecular target: C8/C9 (complement components C8 and C9 of normal human serum, in the assembling membrane attack complex) (human) (UniProt P07357); assay: cell-based or functional assay
[2] = molecular target: wild type human CD59, epitope-tagged, GPI-anchored on CHO cells (human) (UniProt P13987); assay: flow cytometry on CHO cells expressing the CD59 form
[3] = molecular target: human CD59 F23G (human) (UniProt P13987); assay: as above
[4] = molecular target: human CD59 51A plus 20-23A (human) (UniProt P13987); assay: as above
[5] = molecular target: human CD59 W40A (human) (UniProt P13987); assay: as above
[6] = molecular target: human CD59 T52A (human) (UniProt P13987); assay: as above
[7] = molecular target: human CD59 F42A (human) (UniProt P13987); assay: as above
[8] = molecular target: human CD59 H44A (human) (UniProt P13987); assay: as above
[9] = molecular target: human CD59 20A23A (human) (UniProt P13987); assay: as above
[10] = molecular target: human CD59 D24A (human) (UniProt P13987); assay: as above
[11] = molecular target: human CD59 9R (human) (UniProt P13987); assay: as above
[12] = molecular target: human CD59 5R (human) (UniProt P13987); assay: as above
Chain of human CD59 5R (human) (P13987 26-102): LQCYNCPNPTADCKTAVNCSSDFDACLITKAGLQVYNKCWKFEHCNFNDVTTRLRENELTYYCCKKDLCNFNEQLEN

Chain of human CD59 T52A (human) (P13987 26-102, stated change not applied): as the sequence (P13987 26-102) above
Chain of wild type human CD59, epitope-tagged, GPI-anchored on CHO cells (human) (P13987 26-102 limits assumed): as the sequence (P13987 26-102) above
Chain of human CD59 D24A (human) (P13987 26-102 D49A): as the sequence (P13987 26-102) above, with D24A counted along it
Chain of human CD59 F42A (human) (P13987 26-102 F67A): as the sequence (P13987 26-102) above, with F42A counted along it
Chain of human CD59 H44A (human) (P13987 26-102 H69A): as the sequence (P13987 26-102) above, with H44A counted along it
Chain of human CD59 W40A (human) (P13987 26-102 W65A): as the sequence (P13987 26-102) above, with W40A counted along it
Chain of human CD59 51A plus 20-23A (human) (P13987 other isoform, or with tags, fused parts or gaps): as the sequence (P13987 26-102) above, with S20A, S21A, D22A, F23A, T51A counted along it
Chain of human CD59 20A23A (human) (P13987 other isoform, or with tags, fused parts or gaps): as the sequence (P13987 26-102) above, with S20A, F23A counted along it
Chain of human CD59 F23G (human) (P13987 26-102 F48G): as the sequence (P13987 26-102) above, with F23G counted along it
Chain of human CD59 9R (human) (P13987 26-102): as the sequence (P13987 26-102) above
Chain of C8/C9 (complement components C8 and C9 of normal human serum, in the assembling membrane attack complex) (human) (P07357 31-584 limits assumed, chain 1 of 4): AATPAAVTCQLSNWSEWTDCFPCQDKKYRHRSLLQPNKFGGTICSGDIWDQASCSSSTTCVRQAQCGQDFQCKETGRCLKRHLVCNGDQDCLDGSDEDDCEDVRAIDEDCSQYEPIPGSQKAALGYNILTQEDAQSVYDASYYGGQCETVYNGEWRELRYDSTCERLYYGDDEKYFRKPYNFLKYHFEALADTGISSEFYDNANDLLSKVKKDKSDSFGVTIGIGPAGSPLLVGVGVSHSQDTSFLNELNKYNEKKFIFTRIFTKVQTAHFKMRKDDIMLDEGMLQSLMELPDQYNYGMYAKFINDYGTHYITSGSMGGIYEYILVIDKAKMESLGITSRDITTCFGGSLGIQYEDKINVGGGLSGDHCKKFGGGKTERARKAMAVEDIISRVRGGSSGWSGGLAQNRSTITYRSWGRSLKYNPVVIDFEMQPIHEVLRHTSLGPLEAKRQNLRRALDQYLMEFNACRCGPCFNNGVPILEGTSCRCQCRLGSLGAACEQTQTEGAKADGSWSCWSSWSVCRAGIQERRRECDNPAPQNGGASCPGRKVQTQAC
Chain of C8/C9 (complement components C8 and C9 of normal human serum, in the assembling membrane attack complex) (human) (P07358 55-591 limits assumed, chain 2 of 4, further chain): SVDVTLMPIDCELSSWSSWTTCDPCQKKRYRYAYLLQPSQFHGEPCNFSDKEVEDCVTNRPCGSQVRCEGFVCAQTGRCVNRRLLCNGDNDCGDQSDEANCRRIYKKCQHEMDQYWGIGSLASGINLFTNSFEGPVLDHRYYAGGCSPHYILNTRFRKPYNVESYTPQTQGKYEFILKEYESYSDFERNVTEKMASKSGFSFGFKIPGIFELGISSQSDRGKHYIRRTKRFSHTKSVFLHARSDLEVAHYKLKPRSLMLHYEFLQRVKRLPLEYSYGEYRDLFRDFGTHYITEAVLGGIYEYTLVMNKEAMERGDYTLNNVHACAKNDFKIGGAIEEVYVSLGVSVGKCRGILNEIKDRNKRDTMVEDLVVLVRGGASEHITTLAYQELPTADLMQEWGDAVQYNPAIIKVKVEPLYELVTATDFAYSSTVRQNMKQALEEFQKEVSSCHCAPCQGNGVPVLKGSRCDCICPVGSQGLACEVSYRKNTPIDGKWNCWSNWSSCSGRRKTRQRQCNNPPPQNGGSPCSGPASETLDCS
Chain of C8/C9 (complement components C8 and C9 of normal human serum, in the assembling membrane attack complex) (human) (P07360 21-202 limits assumed, chain 3 of 4, further chain): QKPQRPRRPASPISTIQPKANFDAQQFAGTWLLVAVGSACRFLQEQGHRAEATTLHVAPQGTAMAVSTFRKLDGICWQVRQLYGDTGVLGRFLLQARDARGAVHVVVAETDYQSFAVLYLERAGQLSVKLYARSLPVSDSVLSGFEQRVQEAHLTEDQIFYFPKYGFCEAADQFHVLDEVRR
Chain of C8/C9 (complement components C8 and C9 of normal human serum, in the assembling membrane attack complex) (human) (P02748 22-559 limits assumed, chain 4 of 4, further chain): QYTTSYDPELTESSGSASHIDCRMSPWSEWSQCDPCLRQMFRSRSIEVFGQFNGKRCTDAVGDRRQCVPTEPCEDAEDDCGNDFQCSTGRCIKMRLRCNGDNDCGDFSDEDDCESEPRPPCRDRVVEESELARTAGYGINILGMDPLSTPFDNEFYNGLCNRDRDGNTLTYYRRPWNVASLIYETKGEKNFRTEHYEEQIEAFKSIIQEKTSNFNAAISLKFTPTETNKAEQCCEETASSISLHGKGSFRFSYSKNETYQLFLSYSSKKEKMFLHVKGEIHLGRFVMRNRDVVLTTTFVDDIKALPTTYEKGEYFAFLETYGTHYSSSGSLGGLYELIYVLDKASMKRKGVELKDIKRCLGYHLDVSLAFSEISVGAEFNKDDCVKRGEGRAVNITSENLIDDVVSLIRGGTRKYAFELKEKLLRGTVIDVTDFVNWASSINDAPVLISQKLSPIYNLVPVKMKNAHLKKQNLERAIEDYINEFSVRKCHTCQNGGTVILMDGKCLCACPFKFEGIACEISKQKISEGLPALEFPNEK

Row | Substance | increase in inhibitory activity compared to the wt protein [1] [% increase] | inhibitory activity relative to the single mutant T29A [1] | percent of relative mean fluorescence compared to wt CD59 [2] [%] | percent of relative mean fluorescence compared to wt CD59 [3] [%] | percent of relative mean fluorescence compared to wt CD59 [4] [%] | percent of relative mean fluorescence compared to wt CD59 [5] [%] | percent of relative mean fluorescence compared to wt CD59 [6] [%] | percent of relative mean fluorescence compared to wt CD59 [7] [%] | percent of relative mean fluorescence compared to wt CD59 [8] [%] | percent of relative mean fluorescence compared to wt CD59 [9] [%] | percent of relative mean fluorescence compared to wt CD59 [10] [%] | percent of relative mean fluorescence compared to wt CD59 [11] [%] | percent of relative mean fluorescence compared to wt CD59 [12] [%]
1 | human CD59 51A20A (from UniProt P13987 26-102) | 165 | 2 fold of T29A |  |  |  |  |  |  |  |  |  |  | 
2 | anti-CD59 mAb MEM43 (antibody) |  |  | 100 | 98.8 | 92.3 | 6.2 | 99.2 | 99.7 | 88.8 | 98.1 | 3.5 |  | 
3 | anti-CD59 mAb YTH53.1 (antibody) |  |  | 100 | 99.3 | 18.3 | 1 | 99.3 | 99.8 | 58.7 | 35.7 | 5 | 100 | 47.9
4 | anti-CD59 mAb MEM43.5 (antibody) |  |  | 100 | 98.9 | 98.1 | 0.7 | 99.2 | 99.9 | 85.9 | 97.7 | 1.9 | 98.4 | 8.2
